This note sets out measurements from patent publication CN116574187A (ZHEJIANG SHIMAI PHARMACEUTICAL CO LTD, dated 2023).

The target of assay [1] is CD3 on TCR/CD3效应细胞 (Jurkat-NFAT-CD3) (human). Put plainly: cell-based or functional assay.
The target of assay [2] is 细胞表面表达的GUCY2C (HT55, SW948, LS174T-GUCY2C, HT1080-GUCY2C细胞) (human, UniProt P25092 24-1073). Put plainly: cell-based or functional assay.
The next assay deals with T1, 人CD3蛋白 (human).
T1 construct: Bought from ACRO; also called 重组人CD3; human CD3 protein (Fc标签)
T1 sequence (P07766 23-126): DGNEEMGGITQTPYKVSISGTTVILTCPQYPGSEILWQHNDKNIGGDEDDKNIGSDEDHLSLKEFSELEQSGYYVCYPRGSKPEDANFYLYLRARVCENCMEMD
Put plainly: ELISA, coated human CD3 protein.

The target in assay [3] is T2, 人GUCY2C蛋白(His标签) (human, UniProt P25092 24-430).
T2 construct: Bought from ACRO; also called 重组人GUCY2C; human GUCY2C protein (His tag); not shown: His tag
T2 sequence (P25092 24-430 limits assumed): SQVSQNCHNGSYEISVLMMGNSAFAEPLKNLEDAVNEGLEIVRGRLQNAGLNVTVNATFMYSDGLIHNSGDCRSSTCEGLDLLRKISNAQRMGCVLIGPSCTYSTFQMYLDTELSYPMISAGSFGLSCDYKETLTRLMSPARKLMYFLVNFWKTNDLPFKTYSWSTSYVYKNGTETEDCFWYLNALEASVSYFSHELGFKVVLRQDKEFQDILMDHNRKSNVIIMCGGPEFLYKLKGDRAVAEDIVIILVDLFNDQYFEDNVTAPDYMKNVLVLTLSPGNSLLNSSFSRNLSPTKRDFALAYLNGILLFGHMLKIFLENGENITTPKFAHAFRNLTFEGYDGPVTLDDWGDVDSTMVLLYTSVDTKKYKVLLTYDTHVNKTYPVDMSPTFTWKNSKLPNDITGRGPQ
The experiment in a line: ELISA, coated human GUCY2C protein.

The target in assay [4] is T2, 人GUCY2C蛋白(His标签). Put plainly: ELISA, coated human GUCY2C protein, anti-Fc HRP detection.

Chain of CD3 on TCR/CD3效应细胞 (Jurkat-NFAT-CD3) (human) (chain, as listed by the source): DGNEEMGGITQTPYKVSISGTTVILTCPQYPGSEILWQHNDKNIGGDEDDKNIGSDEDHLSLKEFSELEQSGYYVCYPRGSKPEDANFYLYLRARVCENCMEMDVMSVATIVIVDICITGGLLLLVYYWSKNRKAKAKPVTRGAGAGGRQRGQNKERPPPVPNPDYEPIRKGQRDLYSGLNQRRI
Chain of 细胞表面表达的GUCY2C (HT55, SW948, LS174T-GUCY2C, HT1080-GUCY2C细胞) (P25092 24-1073): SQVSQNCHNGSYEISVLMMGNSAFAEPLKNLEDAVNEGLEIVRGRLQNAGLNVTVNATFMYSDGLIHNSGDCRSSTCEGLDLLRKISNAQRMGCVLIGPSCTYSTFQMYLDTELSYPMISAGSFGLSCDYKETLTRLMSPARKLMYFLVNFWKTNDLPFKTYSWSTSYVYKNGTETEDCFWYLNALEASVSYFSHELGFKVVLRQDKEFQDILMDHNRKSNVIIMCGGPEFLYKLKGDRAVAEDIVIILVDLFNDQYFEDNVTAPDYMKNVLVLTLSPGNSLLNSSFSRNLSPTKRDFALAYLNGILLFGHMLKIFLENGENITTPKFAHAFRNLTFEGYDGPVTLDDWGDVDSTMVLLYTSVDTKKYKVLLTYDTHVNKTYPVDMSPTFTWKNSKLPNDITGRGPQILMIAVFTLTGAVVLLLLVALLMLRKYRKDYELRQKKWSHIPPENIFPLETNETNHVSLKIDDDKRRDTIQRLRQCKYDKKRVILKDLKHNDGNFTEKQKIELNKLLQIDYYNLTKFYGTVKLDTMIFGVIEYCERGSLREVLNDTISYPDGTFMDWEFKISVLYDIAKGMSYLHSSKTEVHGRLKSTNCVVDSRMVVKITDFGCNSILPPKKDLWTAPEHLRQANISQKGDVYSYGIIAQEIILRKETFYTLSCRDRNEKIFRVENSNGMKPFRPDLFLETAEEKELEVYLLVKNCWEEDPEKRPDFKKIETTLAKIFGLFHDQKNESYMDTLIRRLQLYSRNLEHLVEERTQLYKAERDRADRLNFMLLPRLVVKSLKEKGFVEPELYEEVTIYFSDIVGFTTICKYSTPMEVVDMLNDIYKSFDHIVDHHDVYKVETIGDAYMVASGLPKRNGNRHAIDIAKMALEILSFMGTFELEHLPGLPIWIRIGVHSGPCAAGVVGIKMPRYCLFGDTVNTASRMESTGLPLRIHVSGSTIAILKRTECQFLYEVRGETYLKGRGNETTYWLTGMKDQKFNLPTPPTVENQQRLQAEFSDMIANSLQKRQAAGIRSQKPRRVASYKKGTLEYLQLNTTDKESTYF

B1: GCC-56C9H4-M6MV1-1 (bispecific antibody, human IgG1, kappa)
light: EVQLVESGGGLVKPGGSLRLSCAASGFTFSSYAMTWVRQTPEKRLEWVATMSSGGGYTYYLDSVKGRFTISRDNAKNTLYLQMSSLRADDTAVYYCARHNYGYNYAMDYWGQGTLVTVSSGGGGSGGGGSGGGGSEIVLTQSPAIQSVSPGEKVTITCSASSSVSYIHWYQQRPGKAPKLLIYSTSNLASGVPARFSGSGSGTDFSLTISRLQAEDAATYYCQQRSSYPLTFGQGTKLEIKGSGGGGSGGGGSEIVVTQSPATLSVSPGERATLSCRSSTGAVTTSNYANWVQQKPGQAPRGLIGGANKRAPGVPARFSGSLSGDEATLTISSLQSEDFAVYYCALWYSNLWVFGQGTKLEIKRTVAAPSVFIFPPSDEQLKSGTASVVCLLNNFYPREAKVQWKVDNALQSGNSQESVTEQDSKDSTYSLSSTLTLSKADYEKHKVYACEVTHQGLSSPVTKSFNRGECGGSGSCPPCPAPEAAGAPSVFLFPPKPKDTLMISRTPEVTCVVVDVSHEDPEVKFNWYVDGVEVHNAKTKPREEQYNSTYRVVSVLTVLHQDWLNGKEYKCKVSNKALGAPIEKTISKAKGQPREPQVYTLPPSRDELTKNQVSLLCLVKGFYPSDIAVEWESNGQPENNYKTTPPVLDSDGSFFLHSKLTVDKSRWQQGNVFSCSVMHEALHNHYTQKSLSLSPG
heavy: EVQLVESGGGLVQPGGSLRLSCAASGFTFNTYAMNWVRQAPGKGLEWVARIRSKYNNYATYYADSVKGRFTISRDDSKNTLYLQMNSLRAEDTAVYYCARHGNFGSSYVSYFAYWGQGTTVTVSSASTKGPSVFPLAPSSKSTSGGTAALGCLVKDYFPEPVTVSWNSGALTSGVHTFPAVLQSSGLYSLSSVVTVPSSSLGTQTYICNVNHKPSNTKVDKKVEPKSCDKTHTCPPCPAPEAAGAPSVFLFPPKPKDTLMISRTPEVTCVVVDVSHEDPEVKFNWYVDGVEVHNAKTKPREEQYNSTYRVVSVLTVLHQDWLNGKEYKCKVSNKALGAPIEKTISKAKGQPREPQVYTLPPSRDELTKNQVSLLCLVKGFYPSDIAVEWESNGQPENNYKTTPPVLDSDGSFFLHSKLTVDKSRWQQGNVFSCSVMHEALHNHYTQKSLSLSPG
notes: Heterodimer of a 'light chain' (humanised anti-GUCY2C scFv - linker - anti-CD3 hSP34 VL-CL - mFc7.2) and a 'heavy chain' (anti-CD3 VH-CH1 - mFc7.2); expressed in 293FS or CHO-S cells; also called GUCY2C×CD3 IBiTE
For B1, in assay [1], the “T cell activation: Jurkat-NFAT-CD3 luciferase reporter with HT55 target cells, EC50” value was roughly 0.374 µg/mL; the “T cell activation: Jurkat-NFAT-CD3 luciferase reporter with LS174T-GUCY2C target cells, EC50” value was roughly 0.335 µg/mL; the “T cell activation: Jurkat-NFAT-CD3 luciferase reporter with SW948 target cells, EC50” value was roughly 0.519 µg/mL. Moreover, in assay [2], the “T cell activation: Jurkat-NFAT-CD3 luciferase reporter with HT55 target cells, EC50” value was roughly 0.374 µg/mL; the “T cell activation: Jurkat-NFAT-CD3 luciferase reporter with LS174T-GUCY2C target cells, EC50” value is roughly 0.335 µg/mL; the “T cell activation: Jurkat-NFAT-CD3 luciferase reporter with SW948 target cells, EC50” value was roughly 0.519 µg/mL; the “killing of HT55 cells with human PBMC (CCK8), EC50” value was determined as 0.0152 µg/mL. Besides, in assay [2], the “killing of LS174T-GUCY2C cells with human PBMC (CCK8), EC50” value was 0.00274 µg/mL and the “killing of SW948 cells with human PBMC (CCK8), EC50” value was 0.012 µg/mL. Also, a half-maximal effect in the assay with 人CD3蛋白 (EC50) was put at 0.116 µg/mL. In addition, the midpoint of the response in the assay with 人GUCY2C蛋白(His标签) [3], the EC50, lay at 0.14 µg/mL.

B2: GCC-56C9M mAb (antibody, human IgG1, kappa)
heavy: not shown
light: QIVLTQSPAIMSVSPGEKVTITCSASSSVSYIHWFQQRPGTSPKLWIYSTSNLASGVPARFSGSGSGTSYSLTISRMEAEDAATYYCQQRSSYPLTFGTGTKLELKRTVAAPSVFIFPPSDEQLKSGTASVVCLLNNFYPREAKVQWKVDNALQSGNSQESVTEQDSKDSTYSLSSTLTLSKADYEKHKVYACEVTHQGLSSPVTKSFNRGEC
notes: Chimeric full IgG1: Fab of mouse clone 56C9 fused to human IgG1 Fc; expressed in CHO-S cells; also called 抗GUCY2C mAb; 抗GUCY2C单克隆抗体
Turning to B2, in assay [2], the “ADCC reporter: activation of Jurkat-CD16a cells in the presence of HT1080-GUCY2C cells (luciferase), EC50” value was roughly 0.0247 µg/mL. For the same molecule, the 50% effective concentration (EC50) with 人GUCY2C蛋白(His标签) [4] is 0.193 µg/mL.
